From patent US20190160076A1 (University of California, published 2019) come the findings set out here.

The test has as its target T1, V5-tagged human lipoprotein lipase (LPL) (human, UniProt P06858 28-475).
T1 construct: also called V5-tagged human LPL; V5-LPL; not shown: V5 tag
T1 sequence: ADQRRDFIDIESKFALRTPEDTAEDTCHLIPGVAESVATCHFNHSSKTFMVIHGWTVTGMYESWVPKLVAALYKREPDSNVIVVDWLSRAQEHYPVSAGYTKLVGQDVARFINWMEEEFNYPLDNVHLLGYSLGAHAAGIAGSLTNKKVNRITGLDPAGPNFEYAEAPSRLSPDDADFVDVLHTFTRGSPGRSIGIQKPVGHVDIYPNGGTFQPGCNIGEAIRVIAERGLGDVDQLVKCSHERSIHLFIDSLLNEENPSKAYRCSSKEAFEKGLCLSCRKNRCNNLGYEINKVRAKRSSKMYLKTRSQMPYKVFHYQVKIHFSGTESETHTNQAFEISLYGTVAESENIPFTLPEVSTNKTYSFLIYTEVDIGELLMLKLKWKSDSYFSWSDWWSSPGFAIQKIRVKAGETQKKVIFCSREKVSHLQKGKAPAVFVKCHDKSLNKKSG
Put plainly: cell-based LPL binding, western blot of CHO cell extracts (FIG. 4A). The protocol: FIG. 4A-B. GPIHBP1 Autoantibodies Block the Binding of LPL to GPIHBP1. […] The LPL used in these experiments was V5-tagged. Western blots were performed with a goat antibody against the S-protein tag (Abcam, 5 μg/ml), followed by an IRDye 680-donkey anti-goat IgG (LI_COR, 1:2000; GPIHBP1) and an IRDye 800-V5 antibody (1:500; LPL). Actin was used as a loading control, and was detected with a rabbit antibody against actin (Abcam, 5 μg/ml) followed by an IRDye 800-donkey anti-rabbit IgG (LI-COR, 1:2000; lower panel). […] In lane 5, pre-incubation of cells with plasma 38 (1:20) abolished LPL binding. […] In lane 2, a mutant GPIHBP1 (GPIHBP1-W109S), which lacks the ability to bind LPL, was included as a control. […] DNA was stained with DAPI (fourth column).
Expression vectors for S-protein-tagged wild-type (wt) GPIHBP1, GPIHBP1-G175R, and GPIHBP1-W109S (or the empty vector) were transfected into CHO pgsA-745 cells or human umbilical vein endothelial cells (HUVEC). After 1 day, the cells were washed three times in PBS and incubated for 1 h at 4° C. with V5-tagged human LPL (900 ng/well). Then the cells were washed six times in PBS, and cell lysates were collected in RIPA buffer (Sigma) containing a protease inhibitor cocktail (Roche). […]
(Immunoblotting shows a protein as a band on a membrane.)

B1: S-protein-tagged wild-type human GPIHBP1 (GPIHBP1-wt) expressed on transfected CHO pgsA-745 cells (receptor)
chain: QTQQEEEEEDEDHGPDDYDEEDEDEVEEEETNRLPGGRSRVLLRCYTCKSLPRDERCNLTQNCSHGQTCTTLIAHGNTESGLLTTHSTWCTDSCQPITKTVEGTQVTMTCCQSSLCNVPPWQSSRVQDPTG
notes: also called GPIHBP1-transfected cells; GPIHBP1-expressing cells; not shown: S-protein tag
As to B1, the binding result is given as “binds”.
